This is an account of results in patent US20230059341A1 (TESARO, published 2023).

Read-outs that look alike come from different tables or passages of the source.

The target of assay [1] is T1, PD-1 protein constitutively expressed on engineered CHO K1 cells (UniProt Q15116 25-288, limits assumed).
T1 construct: whole, on cells; also called programmed cell death protein 1
The experiment in a line: MSD potency assay: competitive binding on CHO K1 cells expressing PD-1, inhibition of PD-L1-mFc binding, ECL; percent of reference material.
Experimental: (§1) The Meso Scale Discovery (MSD) potency assay employs engineered CHO K1 cells constitutively expressing the PD-1 protein. […] The readout is measured using a specific detection antibody mixture that releases an electrochemiluminescence (ECL) signal that can be quantified.

The target in assay [2] is T2, Neonatal Fc Receptor (FcRn) (UniProt P55899 24-297; P61769 21-119, limits assumed). The experiment in a line: FcRn binding assay, BIACORE (SPR). (SPR reads the build-up and loss of mass on a sensor chip optically.)
For assay [3], the target named is T2, Neonatal Fc Receptor (FcRn). In words: FcRn binding assay, BIACORE (SPR). The source holds these as a separate data set.
Assay [4] shares this target. The experiment in a line: FcRn binding assay, BIACORE (SPR). This is another data set of the same source.
The target is the same in assay [5]. The experiment in a line: FcRn binding assay, BIACORE (SPR). The source holds these as a separate data set.
In assay [6] the target is T3, human PD-1 on PD-1 effector cells (Jurkat T cells, Promega #J1155) (human, UniProt Q15116 25-288). In words: cell-based or functional assay.
Assay [7] deals with T2, Neonatal Fc Receptor (FcRn). The experiment in a line: FcRn binding assay, BIACORE (SPR). This is another data set of the same source.
Assay [8] has the same target. The experiment in a line: FcRn binding assay, BIACORE (SPR). The source holds these as a separate data set.
The target of assay [9] is T1, PD-1 protein constitutively expressed …. The experiment in a line: MSD potency assay: competitive binding on CHO K1 cells expressing PD-1, inhibition of PD-L1-mFc binding, ECL; percent of reference material. This is another data set of the same source.
Experimental: as §1
Assay [10] has the same target. The assay is described as above. This is another data set of the same source.
Experimental: as §1
In assay [11] the target is T3, human PD-1 on PD-1 effector cells …. In words: cell-based or functional assay. The source holds these as a separate data set.
For assay [12] the target is unchanged. The experiment in a line: cell-based or functional assay. The source holds these as a separate data set.
Assay [13] deals with T1, PD-1 protein constitutively expressed …. The experiment in a line: MSD potency assay: competitive binding on CHO K1 cells expressing PD-1, inhibition of PD-L1-mFc binding, ECL; percent of reference material. This is another data set of the same source.
Experimental: as §1
Assay [14] addresses T3, human PD-1 on PD-1 effector cells …. The experiment in a line: cell-based or functional assay. The source holds these as a separate data set.
The target is the same in assay [15]. In words: cell-based or functional assay. This is another data set of the same source.
The target in assay [16] is T2, Neonatal Fc Receptor (FcRn). The experiment in a line: FcRn binding assay, BIACORE (SPR); T0 (exposed to H2O2, no incubation).

T2 sequence (P55899 24-297 limits assumed, chain 1 of 2): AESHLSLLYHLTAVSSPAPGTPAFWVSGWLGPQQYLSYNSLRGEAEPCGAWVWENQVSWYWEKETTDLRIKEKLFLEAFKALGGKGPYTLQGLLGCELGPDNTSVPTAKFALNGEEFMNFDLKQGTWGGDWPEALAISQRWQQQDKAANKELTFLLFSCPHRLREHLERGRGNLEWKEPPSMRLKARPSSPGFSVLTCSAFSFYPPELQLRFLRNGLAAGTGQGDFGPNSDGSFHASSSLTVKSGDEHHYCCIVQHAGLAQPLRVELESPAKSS
T2 sequence (P61769 21-119 limits assumed, chain 2 of 2): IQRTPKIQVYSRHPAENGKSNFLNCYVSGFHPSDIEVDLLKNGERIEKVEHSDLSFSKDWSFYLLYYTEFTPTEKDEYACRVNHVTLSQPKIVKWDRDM
T1 sequence (Q15116 25-288 limits assumed, change not shown): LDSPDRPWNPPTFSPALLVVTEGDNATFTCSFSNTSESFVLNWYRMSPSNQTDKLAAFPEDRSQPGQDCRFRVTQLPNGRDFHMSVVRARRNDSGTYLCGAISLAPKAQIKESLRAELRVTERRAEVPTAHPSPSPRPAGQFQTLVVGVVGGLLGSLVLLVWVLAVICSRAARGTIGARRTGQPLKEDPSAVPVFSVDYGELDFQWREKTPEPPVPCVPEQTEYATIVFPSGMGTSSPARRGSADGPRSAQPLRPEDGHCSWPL
T3 sequence (Q15116 25-288): as the sequence (Q15116 25-288 limits assumed, change not shown) above

B1: Dostarlimab, Unstressed Control (antibody, human IgG4 S228P, kappa)
heavy: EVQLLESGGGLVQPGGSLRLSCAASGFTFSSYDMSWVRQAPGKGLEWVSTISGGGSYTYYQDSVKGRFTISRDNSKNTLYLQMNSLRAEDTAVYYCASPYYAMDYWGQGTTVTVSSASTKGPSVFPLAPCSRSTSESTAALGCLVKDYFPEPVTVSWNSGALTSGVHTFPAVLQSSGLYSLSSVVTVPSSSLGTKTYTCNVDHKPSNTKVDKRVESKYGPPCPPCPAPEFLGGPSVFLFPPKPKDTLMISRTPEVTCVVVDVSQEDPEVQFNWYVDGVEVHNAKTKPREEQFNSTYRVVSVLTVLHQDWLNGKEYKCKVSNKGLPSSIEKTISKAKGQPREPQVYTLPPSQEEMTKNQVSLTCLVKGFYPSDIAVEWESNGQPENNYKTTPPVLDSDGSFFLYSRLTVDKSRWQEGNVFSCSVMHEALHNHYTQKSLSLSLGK
light: DIQLTQSPSFLSAYVGDRVTITCKASQDVGTAVAWYQQKPGKAPKLLIYWASTLHTGVPSRFSGSGSGTEFTLTISSLQPEDFATYYCQHYSSYPWTFGQGTKLEIKRTVAAPSVFIFPPSDEQLKSGTASVVCLLNNFYPREAKVQWKVDNALQSGNSQESVTEQDSKDSTYSLSSTLTLSKADYEKHKVYACEVTHQGLSSPVTKSFNRGEC
modifications: percent of population: Met 248 oxidation 3.0; Asp 261/266/276 isomerization 1.0; Asn 311 deamidation 6.0; Asn 380 deamidation 8.4; Asn 430 deamidation 1.2; Lys 443 clipped 97.8
notes: Control of the forced degradation study (DS batch #1); HMW 0.9%
With B1, the “Relative Potency, MSD Binding” value in assay [1], in assay [9], in [10] and in assay [13] was 88% each time. Moreover, the dissociation constant (Kd) in [2], in assay [3], in assay [4], in [5], in assay [7] and in assay [8] was 2140 nM throughout. Also, the “Relative Potency (Potency by cell-based bioassay)” value in assay [6] was 98%. Moreover, the “Relative Potency, Cell-Based Bioassay” value in assay [11], in assay [12], in assay [14] and in [15] was 98% throughout.

B2: Dostarlimab, H2O2 treated, T0 (exposed to H2O2, no incubation) (antibody, human IgG4 S228P, kappa)
heavy: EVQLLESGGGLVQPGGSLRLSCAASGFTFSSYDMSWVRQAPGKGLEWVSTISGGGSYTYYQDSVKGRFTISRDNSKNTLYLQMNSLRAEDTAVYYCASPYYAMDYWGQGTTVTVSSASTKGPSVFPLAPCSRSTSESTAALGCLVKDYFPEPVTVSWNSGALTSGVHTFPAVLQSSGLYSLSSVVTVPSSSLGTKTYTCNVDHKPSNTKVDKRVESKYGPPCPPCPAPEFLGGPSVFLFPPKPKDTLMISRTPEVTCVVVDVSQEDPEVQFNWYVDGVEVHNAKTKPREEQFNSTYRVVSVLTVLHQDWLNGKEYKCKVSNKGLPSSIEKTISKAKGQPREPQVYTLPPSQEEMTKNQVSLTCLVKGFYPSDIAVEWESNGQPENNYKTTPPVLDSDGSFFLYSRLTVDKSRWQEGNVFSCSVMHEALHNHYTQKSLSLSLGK
light: DIQLTQSPSFLSAYVGDRVTITCKASQDVGTAVAWYQQKPGKAPKLLIYWASTLHTGVPSRFSGSGSGTEFTLTISSLQPEDFATYYCQHYSSYPWTFGQGTKLEIKRTVAAPSVFIFPPSDEQLKSGTASVVCLLNNFYPREAKVQWKVDNALQSGNSQESVTEQDSKDSTYSLSSTLTLSKADYEKHKVYACEVTHQGLSSPVTKSFNRGEC
modifications: percent of population: Asn 137 deamidation 1.3; percent of population: Met 103 oxidation 1.2; Met 248 oxidation 47.1; Asn 311 deamidation 6.8; Met 354 oxidation 16.7; Asn 380 deamidation 10.7; Asn 385 deamidation 1.7; Met 424 oxidation 29.0; Lys 443 clipped 97.2
notes: 0.1% (v:v) H2O2, quenched at once with methionine; also called H2O2 T0; Peroxide (H2O2) Oxidation
In the case of B2, the “Relative Potency (Potency by cell-based bioassay)” value in assay [6] was 94%. This molecule had a Kd in assay [16] of 4380 nM. Further, the “Relative Potency, MSD Binding” value in assay [9] was 95%. In addition, in assay [14], the “Relative Potency, Cell-Based Bioassay” value came to 94%.

B3: Dostarlimab, photo degraded, Vis light, 25° C., 1 week and UV light, 25° C., 1 week (antibody, human IgG4 S228P, kappa)
heavy: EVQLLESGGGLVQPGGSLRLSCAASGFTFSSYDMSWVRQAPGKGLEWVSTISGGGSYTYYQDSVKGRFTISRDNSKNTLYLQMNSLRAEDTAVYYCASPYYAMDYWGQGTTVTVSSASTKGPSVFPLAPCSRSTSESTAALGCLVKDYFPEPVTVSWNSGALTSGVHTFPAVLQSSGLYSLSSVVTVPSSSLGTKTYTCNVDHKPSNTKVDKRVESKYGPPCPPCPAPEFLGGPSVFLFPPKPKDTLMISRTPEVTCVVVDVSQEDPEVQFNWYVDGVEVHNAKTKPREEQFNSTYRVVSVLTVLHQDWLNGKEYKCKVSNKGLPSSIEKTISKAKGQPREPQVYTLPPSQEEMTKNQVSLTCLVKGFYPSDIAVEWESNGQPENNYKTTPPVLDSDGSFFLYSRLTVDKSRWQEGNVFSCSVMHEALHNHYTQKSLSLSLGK
light: DIQLTQSPSFLSAYVGDRVTITCKASQDVGTAVAWYQQKPGKAPKLLIYWASTLHTGVPSRFSGSGSGTEFTLTISSLQPEDFATYYCQHYSSYPWTFGQGTKLEIKRTVAAPSVFIFPPSDEQLKSGTASVVCLLNNFYPREAKVQWKVDNALQSGNSQESVTEQDSKDSTYSLSSTLTLSKADYEKHKVYACEVTHQGLSSPVTKSFNRGEC
modifications: percent of population: Trp 50 oxidation 4.8; percent of population: Met 248 oxidation 33.4; Asp 261/266/276 isomerization 1.0; Asn 311 deamidation 6.4; Met 354 oxidation 10.9; Asn 380 deamidation 9.5; Asn 385 deamidation 1.3; Met 424 oxidation 27.0; Asn 430 deamidation 1.2; Lys 443 clipped 97.8
notes: Mixture; HMW 3.3%; also called Photolysis
Consider B3, for which the “Relative Potency (Potency by cell-based bioassay)” value in assay [6] amounted to 90%. This molecule also displayed a Kd in assay [8] of 2490 nM.

As usually defined, the Kd is the equilibrium constant for the complex coming apart. A higher Kd goes with a looser complex.
